Test results taken from US20120014950A1, “Antibodies That Specifically Bind to DR3” (Xencor, Inc., priority 2010, published 2012).
Entries after “also recorded” stand apart in the source; their conditions may differ.

How the values were obtained:
human DR3 [1] = biological target: T1, human DR3 (Homo sapiens, UniProt Q93038); experiment: TF-1 assay (cell viability, cycloheximide, Cell Titer Glo); format: cell-based; design: endogenous in cells; host or cells: TF-1 (premyeloid); conditions: TF-1 cells with cycloheximide; luminescence
T1 sequence (Q93038 25-417): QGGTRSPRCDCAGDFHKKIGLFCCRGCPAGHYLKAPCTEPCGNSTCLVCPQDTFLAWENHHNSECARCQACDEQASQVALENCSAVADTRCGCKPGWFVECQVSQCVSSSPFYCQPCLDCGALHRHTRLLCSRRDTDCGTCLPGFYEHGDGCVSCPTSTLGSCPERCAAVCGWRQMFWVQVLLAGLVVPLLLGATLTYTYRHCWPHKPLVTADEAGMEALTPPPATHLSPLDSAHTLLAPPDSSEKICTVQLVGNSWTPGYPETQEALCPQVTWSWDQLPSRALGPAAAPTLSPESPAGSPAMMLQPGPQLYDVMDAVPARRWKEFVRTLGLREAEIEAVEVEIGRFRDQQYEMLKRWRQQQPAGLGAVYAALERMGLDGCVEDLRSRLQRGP

primary human T cells = experiment: Primary human T cell assay (proliferation, cytokine secretion); format: cell-based
Experimental: A primary human T cell assay can be performed using standard methods known in the art. Briefly, primary human T cells are incubated with 100 ng/mL human TL1A ligand and appropriate concentrations of the antibody molecules to be tested for 72 hours. This incubation is followed by a 24 hour incubation with 5 ng/mL IL-2. Proliferation is measured by a standard luminescent protocol. The amount of cytokine secreted is determined by standard methods in the art.
A primary human T cell assay was performed to determine the effect of the 11H08-Fab-HSA on proliferation and the secretion of IFNγ or GM-CSF from cells treated with TL1A. […] 3 μg/mL 11H08-Fab-HSA, 3 μg/mL hDR3-Fc, or 3 μg/mL full length 11H08 immunoglobulin were used in this experiment. Results were compared to a set of cells treated only with media and cells that were treated only with 100 ng/mL TL1A, as indicated.

human DR3 [2] = biological target: T1, human DR3; experiment: TL1A binding inhibition assay (flow cytometry); design: expressed in transfected cells; host or cells: HEK293F (transient); conditions: HEK293F cells transiently expressing human DR3, 1 μg/mL human TL1A
Experimental: The anti-DR3 monoclonal antibody 11H08 was assayed for its ability to inhibit human TL1A binding to human DR3 using techniques known to those skilled in the art. Briefly, HEK293F cells transiently expressing human DR3 were incubated with 1 μg/mL of human TL1A in the presence of either an unrelated antibody (mIgG1) as an isotype control that was known not to bind TL1A or DR3, or an anti-DR3 monoclonal antibody (11H08), for 20 minutes at room temperature. Binding was detected using an anti-TL1A-biotin polyclonal antibody followed by Streptavidin PE. The ability of the anti-DR3 monoclonal antibody to inhibit binding of TL1A to DR3 was measured by flow cytometry.

human DR3 [3] = biological target: T1, human DR3; experiment: TF-1 assay (cell viability, cycloheximide, Cell Titer Glo); format: cell-based; design: endogenous in cells; host or cells: TF-1 (premyeloid); conditions: TF-1 cells, 10 ng/mL hTL1A and cycloheximide; luminescence
Experimental: Treatment of TF-1 cells with human TL1A (the ligand for DR3) in the presence of cycloheximide induces cell death (Migone et al., Immunity 16:479-492 (2002)). A TF-1 assay was used to test the ability of 11H08 to block TL1A activity through the DR3 receptor.
A TF-1 assay can be performed according to methods known in the art. Briefly, premyeloid TF-1 cells are maintained in 10% FBS (fetal bovine serum), 1×RPMI, 1% Pen-Strep with Glutamine, and 2 ng/mL GM-CSF. The cells are grown until log phase, washed three times in PBS, and incubated with the antibodies to be tested for one hour. After this pre-incubation, between 50,000 and 100,000 cells are seeded per well. The cells are combined with 10 ng/mL hTL1A, 10 μg/mL cycloheximide (Sigma-Aldrich, cat #C1988-1G) and the antibodies to be tested and then incubated for 24 to 72 hours. Cell viability is measured using Cell Titer Glo (Promega, cat #G7570). This assay allows cell viability to be determined by measuring the luminescent signal which is proportional to the amount of ATP present. The ATP is indicative of metabolically active cells and higher luminescence signals reflect greater cell viability.
In order to test the effect of 11H08-scFv-HSA and the humanized anti-DR3-Fab molecules, a TF-1 assay was used to test the ability of these various anti-DR3 fragments to block TL1A induced activity. The TF-1 assay was performed as indicated above in Example 5, but where the various anti-DR3 fragments were used instead of the whole 11H08 immunoglobulin as described.

[4] = 100 ng/mL hTL1A, 3 μg/mL test molecule

B1: 11H08: mouse anti-human DR3 monoclonal antibody, isotype IgG1κ, from hybridoma 11H08; VH SEQ ID NO:7, VL SEQ ID NO:20 (antibody, listed as Mus musculus, V domains shown)
VH: EVMLVESGGGLVKPGGSLKLSCAASGFTFTNYAMSWVRQTPEKRLEWVATITSGGSYIYYLDSVKGRFTISRDNAKSTLYLQMSSLRSEDTAIYNCARRKDGNYYYAMDYWGQGTSVTVSS
VL: DIVLTQSPASLAVSLGQRATISCRASESVDSYGNSFIHWYQQKAGQPPKLLIYRASNLESGIPARFSGSGSRTDFTLTINPVEADDVATYYCQQSYEDPWTFGGGTKLEIK
B1 was tested, and the “TF-1 cell viability / apoptosis induction (agonist, TL1A-like activity)” value (human DR3 [1]) was “activated the DR3 receptor, thereby inducing TL1A-like activity”, the “proliferation and cytokine secretion (agonist activity)” value (primary human T cells; 3 μg/mL antibody alone) was “induced TL1A-like activity” and the “inhibition of human TL1A binding to human DR3” value (human DR3 [2]) was “inhibited human TL1A binding to the human DR3 receptor”.

B2: 11H08-Fab: Fab of 11H08 VH/VL (SEQ ID NOs:7, 20) with human IgG1 CH1 and Cκ; parental anti-DR3 molecule (antibody, listed as Mus musculus, V domains shown)
VH: EVMLVESGGGLVKPGGSLKLSCAASGFTFTNYAMSWVRQTPEKRLEWVATITSGGSYIYYLDSVKGRFTISRDNAKSTLYLQMSSLRSEDTAIYNCARRKDGNYYYAMDYWGQGTSVTVSS
VL: DIVLTQSPASLAVSLGQRATISCRASESVDSYGNSFIHWYQQKAGQPPKLLIYRASNLESGIPARFSGSGSRTDFTLTINPVEADDVATYYCQQSYEDPWTFGGGTKLEIK
modifications: human IgG1 CH1 and Ckappa constant domains
notes: parental anti-DR3 molecule
B2 was tested, and the “inhibition of TL1A-induced apoptosis (TF-1 cell viability)” value (from here on “inhibition of TL1A-induced apoptosis”) (human DR3 [3]) was “prevented TL1A-induced apoptosis; also recorded: inhibited TL1A-induced apoptosis in TF-1 cells”.

B3: H1L2-Fab: humanized anti-DR3 Fab, VH H1 (SEQ ID NO:9), VL L2 (SEQ ID NO:22, Leu at Kabat 104) (antibody, V domains shown)
VH: EVQLVESGGGLVKPGGSLRLSCAASGFTFTNYAMSWVRQAPGQRLEWVSTITSGGSYIYYLDSVKGRFTISRDNAKSTLYLQMNSLRAEDTAVYNCARRKDGNYYYAMDYWGQGTTVTVSS
VL: DIVLTQSPSSLSASVGDRVTITCRASESVDSYGNSFIHWYQQKPGQPPKLLIYRASNLESGIPARFSGSGSRTDFTLTISSLQPEDFATYYCQQSYEDPWTFGGGTKXEIK
modifications: Fab constant domains; humanized murine antibody
For B3, the “inhibition of TL1A-induced apoptosis” value (human DR3 [3]) was “inhibited TL1A-induced apoptosis in TF-1 cells”.

B4: hDR3-Fc: human DR3-Fc fusion protein, known to bind TL1A and inhibit activity (protein)
chain: QGGTRSPRCDCAGDFHKKIGLFCCRGCPAGHYLKAPCTEPCGNSTCLVCPQDTFLAWENHHNSECARCQACDEQASQVALENCSAVADTRCGCKPGWFVECQVSQCVSSSPFYCQPCLDCGALHRHTRLLCSRRDTDCGTCLPGFYEHGDGCVSCPTSTLGSCPERCAAVCGWRQ
modifications: left off: a dimerising Fc or GST
In the case of B4, the TL1A-induced cell proliferation (primary human T cells; [4]) is reported as “inhibited” and the “TL1A-induced cytokine secretion (IFNγ, GM-CSF)” value (primary human T cells; [4]) is reported as “inhibited”.

B5: H5L2-Fab: humanized anti-DR3 Fab, VH H5 (SEQ ID NO:17), VL L2 (SEQ ID NO:22, Leu at Kabat 104) (antibody, V domains shown)
VH: EVQLLQSGAEVKKPGASVKVSCKASGFTFTNYAMSWVRQAPGQRLEWVATITSGGSYIYYLDSVKGRFTISRDNAKSTLHLQMNSLRAEDTAVYNCARRKDGNYYYAMDYWGQGTTVTVSS
VL: DIVLTQSPSSLSASVGDRVTITCRASESVDSYGNSFIHWYQQKPGQPPKLLIYRASNLESGIPARFSGSGSRTDFTLTISSLQPEDFATYYCQQSYEDPWTFGGGTKXEIK
modifications: Fab constant domains; humanized murine antibody
With B5 the “inhibition of TL1A-induced apoptosis” value (human DR3 [3]) was “inhibited TL1A-induced apoptosis in TF-1 cells”.
